In paper PMC6942045:

biological target: K63-di-Ub (UniProt P0CG47); assay: ITC

Row | Kd [µM] | Substance
1 | 20 | Cezanne2 UBA (1-88 aa), GST cleaved (from UniProt Q8TE49 1-88) (domain or fragment)
2 | 6.4 | Rap80 UIMs (60-144 amino acids), GST cleaved (from UniProt Q96RL1 60-144) (domain or fragment)
3 | 20 | Cezanne UBA (1-66 aa), GST cleaved (from UniProt Q6GQQ9 1-66) (domain or fragment)
